Assay results published in patent US20190345232A1 (GENEURO, published 2019).

Target: T1, linear peptide SLDKHKHKKLQSFYP (SEQ ID NO:9) from HERV-K-Env (human endogenous retrovirus type K …)
T1 construct: 15-mer synthesized on a solid support in the Pepscan peptide array; It corresponds to the 298-312 region of the HERV-K-Env protein described by Dewannieux et al 2005
T1 peptide: SLDKHKHKKLQSFYP
Assay: Pepscan peptide array ELISA, antibody at 1 µg/ml

B1: GN_mAb_Env_K01 (antibody, V domains shown)
VH: QVQLQQPGAELVRPGASVKLSCKASGYTFTSYWMNWVKQRPEQGLEWIGRIDPYDSETHYNQKFKDKAILTVDKSSSTAYMQLSSLTSEDSAVYYCASLYYYGISLWGQGTLVTVS
VL: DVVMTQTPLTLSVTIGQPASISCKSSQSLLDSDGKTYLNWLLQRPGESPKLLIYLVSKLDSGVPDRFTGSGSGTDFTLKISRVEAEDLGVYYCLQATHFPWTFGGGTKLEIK
notes: also called GN K01; GN K01 Ig
B1: binds.
